{"source": "the nanobody polyreactivity screen of Harvey et al. (2022)", "data": [{"experiment": "yeast display, Sf9 membrane polyspecificity reagent, FACS + sequencing; frameworks hold sequencing errors", "procedure,_shortened": "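Synthetic nanobody libraries on Saccharomyces cerevisiae BJ5465 were galactose-induced for 36–48 hours, stained 1 hour at 4 °C with 10% biotinylated, detergent-solubilized Sf9 membrane reagent and enriched on streptavidin microbeads. FACS then separated cells into low and high (top ~1%) gates by anti-HA (expression) and streptavidin (reagent binding) fluorescence. Genes were colony-PCR amplified, MiSeq 2 × 250 sequenced and CDR-length filtered. A clone's polyreactivity label is that of its gate of origin.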", "values": [{"sequence": "QVQLVESGGGLVQAGGSLRLSCAASGSTFYWYAMGWYRQAPGKERELVDDITFSSGGTYYADSVKGRFTISRDNAKNTVYLQMNSLKPEVTADYYCATEYSLWYTRDWQRYEYWGQGTQVTVSS", "polyreactivity (PSR sort gate)": "high polyreactivity"}, {"sequence": "QVQLVESGGGLVQAGGSLRLSCAASGRIFDDYAMGWYRQAPGKERELVAAISSSGGSTYYADSVKGRFTISRDNAKNTVYLQMNSLKPEDTAVYYCARYPPGRRRYEYWGQGTQVTVSS", "polyreactivity (PSR sort gate)": "high polyreactivity"}, {"sequence": "QVQLVESGGGLVQAGGSLRLSCAASGSIFIDNAMGWYIQAPGKEREFVAAISKSGTSTYYADSVNGRFTISRDNAMNAVDLQMNSLKPEDTAVYYCAVRRPRPYSNYYYWGQGTQVTVSS", "polyreactivity (PSR sort gate)": "high polyreactivity"}, {"sequence": "QVQLVESGGGLVQAGGSLRLSCAASGRTFVPYDMGWYRQAPGKERELVAAISSGDSTNYTDSVKGRFTISRDNAKNTVYLQMNSLKPEDTAVYYCAADLTYTMDHWGQGTQVTVSS", "polyreactivity (PSR sort gate)": "low polyreactivity"}, {"sequence": "EVQLVESGGGLVQAGGSLRLSCAASGSIFSFYAMGWYRQAPGKERELVAAISRSAGRTYYADSVKGRFTISRDNATNTVYLQRNSLKPEDTAVYYCNKASWYNGEMDYWGQGTQVTVSS", "polyreactivity (PSR sort gate)": "high polyreactivity"}, {"sequence": "QVQLVESGGGLVQAGGSLRLSCAASGSNFVRNTMGWYRQAPGKESELVATISSGGRTNYADSVKGRFTISRDNAKNTVYLQLNSLKPEDTAVYYCNRPRWYGGSPYYYWGQGTQVTVSS", "polyreactivity (PSR sort gate)": "high polyreactivity"}, {"sequence": "QVQLVESGGGLVQAGGSLRLSCAASGSTFTWYAMGWYRQAPGKEGELVAAISRGGSTNYADSVKGRFTISRDNAKNTVYLQMNSLKPEDTAVYYCAAESYWRDDYWGQGTQVTVSS", "polyreactivity (PSR sort gate)": "low polyreactivity"}, {"sequence": "QVHLQESGGGLVQAGGSLRLSCAASGTIFRFRYMGWHRQAPGKERELVAGINGGTTTYYADSVIGRFTISRDNAKNTVYLQMNSLKPDDTAVYNCAAGASRLTYYDFWGQGTQVTVSS", "polyreactivity (PSR sort gate)": "low polyreactivity"}, {"sequence": "QVQLVESGGGLVQAGGSLRLSCAASGRILKRYAMGWYRQAPGKERELVAAINWNGGSTYYADSVKGRFTISRDNAKNTVYLQMNSLKPEDTAVYYCAAYYGTPRGFDYWGQGTQVTVSS", "polyreactivity (PSR sort gate)": "high polyreactivity"}, {"sequence": "QVQLVESGGGLVQAGGSLRLSCAASGRILDIYAMGWYRQAPGKDRELVAAINSDGRTYYADSVKGRFTISRDNAKNTVYLQMNSLKPEDTAVYYCNARHHNKVARFDYWGQGTQVTVSS", "polyreactivity (PSR sort gate)": "low polyreactivity"}, {"sequence": "QVQLVESGGGLVQAGGSLRLSCAASGSIFLSNAMGWYRQAPGKERELVAAISRRGASTYYADSVKGRFTISRDNAKNTVYLQMNSLKPEDTAVYYCAARSYSAYGYNYWGQGTQVTVSS", "polyreactivity (PSR sort gate)": "high polyreactivity"}, {"sequence": "QVQLVESGGGLVQAGGSLRLSCAASGSTFDPYAMGWYRQAPGIERELVAAITGRGGSTYYADSVKGRFTISRDNAKNTVYLQMNSLKPEDTAVYYCNAEGDKRRDRYDYWGQGSQVTVSS", "polyreactivity (PSR sort gate)": "low polyreactivity"}, {"sequence": "QVQLVESGGGLVQAGGSLRLSCAASGRTFGYYAMGWYRPAPGKEGELVAVITWSGDSTYYADSVKGRFTISRDNAKNTVYLQMNSLKPEDTAVYYCNADSGNAGTAYDDYDYWGQGTQVTVSS", "polyreactivity (PSR sort gate)": "low polyreactivity"}, {"sequence": "QVQLVESGGGLVQAGGSLRLSFAASGIIFSHNVMGWYRQAPGKERELVAAITYSGGSTYYADSVKGRFTISRDNAKNTVYLLMNSLKPEDTAVYYCNALGVSRRDYDYWGQGTQVTVSS", "polyreactivity (PSR sort gate)": "low polyreactivity"}, {"sequence": "QVQLVESGGGLVQAGGSLRLSCAASGRIFYWNAMGWYRQAPGKERELVAGITGGGNTNYADSVKGRFTISRDNAKNTVYLQMNSLKPEDTAVYYCATRTNRRRSYDYWGQGTQVTVSS", "polyreactivity (PSR sort gate)": "high polyreactivity"}, {"sequence": "QVQLVESGGGLVQAGGSLRLSCAASGRTFAVNAMGWYRQAPGTERELVAAISLSGGRTYYADSVKGRFTISRDNAKNTVSLQMNSLKPEDTAVYYCAASRHFARHRGYYFRYDYWGQGTQVTVSS", "polyreactivity (PSR sort gate)": "high polyreactivity"}, {"sequence": "QVQLVESGGGLVQAGGSLRLSCAASGRTFFWYAMGWYRQAPGKERELVADISSSGGSTYYADSVKGRFTISRDNAKNTVYLQMNSLKPEDTAVYYCAALSPWWRGGYNYWGQGTQVTVSS", "polyreactivity (PSR sort gate)": "high polyreactivity"}, {"sequence": "QVQLEESVGGLVQAGCSLRLSCAASGGIFWVYAMGWYRQAPGKERELVAAISNSDTSTSYADSVKGRFTISRDNAKNTVYLQMNSLKPEDTAVYYCNADSPSLSGDYWGQGTQVTVSS", "polyreactivity (PSR sort gate)": "low polyreactivity"}, {"sequence": "QVQLVESGGGLVQAGGSLRLSCAGSGRIFRTYAMGWFRQAPGKEGEFVAGISRGGSTDYADSVKGRFTISRDNEKNTVYLQMNSLKPEDSAVYYCAAASLRYYSPRVRYPYYYWGQGTQVTVSS", "polyreactivity (PSR sort gate)": "high polyreactivity"}, {"sequence": "QVQLVESGGGLVKAGGSLRLSCAASGRTFWIYAMGWYRPAPGKERELRAAISQSSSNTYYADSVKGRVTLSRDNAKNTVYLQMNSLKPEDTAVYYCNAVVLRYQGSWLEYWGQGTQVTVSS", "polyreactivity (PSR sort gate)": "low polyreactivity"}, {"sequence": "QVQLVESGGGLVQAGGSLRLSCAASGFNIYNNAMAWYRQAPGKERELVAAITSNGGRTYYADSVKGRFTISRDNAKNTFYLQMNSLKPEDTAVYYCAVDLYVWNVHYYYWGQGTQVTVSS", "polyreactivity (PSR sort gate)": "high polyreactivity"}]}]}
